Experimental data: patent publication US8663616B2, “Enzymatic peracid generation for use in oral care products” (E I du Pont de Nemours and Company, priority 2010, dated 2014)
Each block holds one molecule with its values, some of them ahead of it.

Columns and labels:
Type in all cases: biochemical
[1] = P. fluorescens perhydrolase constructs, peracetic acid in solution (Example 10); conditions: 2 μM enzyme, 100 mM H2O2, 1 M sodium acetate pH 5.5, 30 min, 37° C.; no enzyme 9
Procedure: (§1) The detection of peracetic acid followed the method described in Pinkernell et. al. (Analyst, 1997, 122, 567) using colorimetric detection of 2,2′-azino-bis(3-ethylbenzothiazoline(-6-sulfonate (ABTS) oxidation by peracetic acid. Following the formation of peracetic acid with the addition of triacetin and hydrogen peroxide, 90 μL of solution was added to 10 μL of 0.1 M H3PO4 in a well plate. 50 μL of 1 M acetic acid, 50 μL of 0.5 g/L ABTS and 50 μL of 0.002 g/L of KI was added. The solution was allowed to develop for 5 min. The absorbance of the solution was measured at 405 nm using a microplate reader. The peracetic acid concentration was calculated based on a standard curve developed simultaneously using peracetic acid reagent solution.
(§2) For P. fluorescens constructs, the solution activity was measured by mixing a 1 mL solution containing 2 μM enzyme, 100 mM H2O2 in a 1 M sodium acetate buffer, pH 5.5. The solution was incubated at 37° C. for 30 min. As described in Example 7, the reaction was stopped by removing a portion to H3PO4 and a 10 μL aliquot was removed and diluted for detection via ABTS oxidation. For assessment of binding and activity on hydroxyapatite, the P. fluorescens enzymes were exposed to hydroxyapatite particles at 20 μM in 10 mM phosphate buffer as described in Example 8 using 100 mg of buffer washed HAP particles (Macro-prep Ceramic Hydroxyapatite TYPE I, 80 μm size BioRad, Hercules, Calif.). Following centrifugation and removal of the enzyme solution, the particles were rinsed with phosphate butter by centrifuging and removing the supernatant. A 200 μL solution containing 300 mM H2O2 in 1 M sodium acetate buffer, pH 5.5 was added to the particles and incubated at 37° C. for 10 min. As described in Example 7, the reaction was stopped by removing a portion to H3PO4 and a 10 μL aliquot was removed and diluted for detection via ABTS oxidation.

[2] = P. fluorescens perhydrolase constructs, peracetic acid when bound to hydroxyapatite particles (Example 10); conditions: 100 mg HAP particles exposed to 20 μM enzyme; 300 mM H2O2, 1 M sodium acetate pH 5.5, 10 min, 37° C.; no enzyme 17
Procedure: as §1, §2

[3] = M. smegmatis aryl esterase constructs, peracetic acid when bound to hydroxyapatite particles (Example 10); conditions: 33 mg HAP particles exposed to 10 μM enzyme; 100 mM triacetin, 100 mM H2O2, 30 min, 37° C.; no enzyme 323
Procedure: as §1
For assessment of binding and activity on hydroxyapatite, the aryl esterase enzymes were exposed to hydroxyapatite particles as described in Example 8 using 33 mg of buffer washed HAP particles (Macro-prep Ceramic Hydroxyapatite TYPE I, 80 μm size BioRad, Hercules, Calif.) using a 10 μM solution in 10 mM phosphate buffer. Following centrifugation and removal of the enzyme solution, the particles were rinsed with phosphate butter by centrifuging and removing the supernatant. A 200 μL solution containing 100 mM triacetin, 100 mM H2O2 and 100 mM phosphate buffer, pH 7.2 was added to the particles and incubated at 37° C. for 30 min. As described in Example 7, the reaction was stopped by removing a portion to H3PO4 and a 10 μL aliquot was removed diluted for detection via ABTS oxidation.

[4] = M. smegmatis aryl esterase constructs, peracetic acid in solution (Example 10); conditions: 0.5 μM enzyme, 100 mM triacetin, 100 mM H2O2, pH 7.2, 30 min, 37° C.; no enzyme 158
Procedure: as §1
For aryl esterase constructs, the enzyme activity in solution was measured by making a 1 mL solution of 0.5 μM of each enzyme, 100 mM triacetin, and 100 mM H2O2 in 100 mM phosphate buffer, pH 7.2. The solution was mixed and incubated for 30 min, at 37° C. As described in Example 7, the reaction was stopped by removing a portion to H3PO4 and a 10 μL aliquot was removed and diluted for detection via ABTS oxidation.

- Peracetic acid (ppm) In Solution [1]: 79 ppm
- Peracetic acid (ppm) On Hydroxyapatite [2]: 68 ppm
B1: EZ-43: Pfl-link1-DenP308-H6, SEQ ID NO: 467 (protein)
chain: MSTFVAKDGTQIYFKDWGSGKPVLFSHGWPLDADMWEYQMEYLSSRGYRTIAFDRRGFGRSDQPWTGNDYDTFADDIAQLIEHLDLKEVTLVGFSMGGGDVARYIARHGSARVAGLVLLGAVTPLFGQKPDYPQGVPLDVFARFKTELLKDRAQFISDFNAPFYGINKGQVVSQGVQTQTLQIALLASLKATVDCVTAFAETDFRPDMAKIDVPTLVIHGDGDQIVPFETTGKVAAELIKGAELKVYKDAPHGFAVTHAQQLNEDLLAFLKRGPGSGGAGSPGSAGGPGSDPTKPPRTPTANTSRPHHNFGSGGGGSPHHHHHH

- Peracetic acid (ppm) On Hydroxyapatite [3]: 927 ppm
B2: EZ-37: ArE-link1-H6, SEQ ID NO: 461 (protein)
chain: MAKRILCFGDSLTWGWVPVEDGAPTERFAPDVRWTGVLAQQLGADFEVIEEGLVARTTNIDDPTDPRLNGASYLPSCLATHLPLDLVIIMLGTNDTKAYFRRTPLDIALGMSVLVTQVLTSAGGVGTTYPAPKVLVVSPPPLAPMPHPWFQLIFEGGEQKTTELARVYSALASFMKVPFFDAGSVISTDGVDGIHFTEANNRDLGVALAEQVRSLLGPGSGGAGSPGSAGGPGSHHHHHH

- Peracetic acid (ppm) In Solution [4]: 2697 ppm
- Peracetic acid (ppm) On Hydroxyapatite [3]: 452 ppm
B3: EZ-36: M. smegmatis aryl esterase ArE S54V, untargeted, SEQ ID NO: 460 (protein, listed as Mycobacterium smegmatis)
chain: MAKRILCFGDSLTWGWVPVEDGAPTERFAPDVRWTGVLAQQLGADFEVIEEGLVARTTNIDDPTDPRLNGASYLPSCLATHLPLDLVIIMLGTNDTKAYFRRTPLDIALGMSVLVTQVLTSAGGVGTTYPAPKVLVVSPPPLAPMPHPWFQLIFEGGEQKTTELARVYSALASFMKVPFFDAGSVISTDGVDGIHFTEANNRDLGVALAEQVRSLL

- Peracetic acid (ppm) In Solution [4]: 1366 ppm
- Peracetic acid (ppm) On Hydroxyapatite [3]: 3553 ppm
B4: EZ-39: ArE-link1-(GK)5-H6, SEQ ID NO: 463 (protein)
chain: MAKRILCFGDSLTWGWVPVEDGAPTERFAPDVRWTGVLAQQLGADFEVIEEGLVARTTNIDDPTDPRLNGASYLPSCLATHLPLDLVIIMLGTNDTKAYFRRTPLDIALGMSVLVTQVLTSAGGVGTTYPAPKVLVVSPPPLAPMPHPWFQLIFEGGEQKTTELARVYSALASFMKVPFFDAGSVISTDGVDGIHFTEANNRDLGVALAEQVRSLLGPGSGGAGSPGSAGGPGSGKGKGKGKGKHHHHHH

- Peracetic acid (ppm) In Solution [1]: 58 ppm
- Peracetic acid (ppm) On Hydroxyapatite [2]: 97 ppm
B5: EZ-44: Pfl-link1-HC263-H6, SEQ ID NO: 479 (protein)
chain: MSTFVAKDGTQIYFKDWGSGKPVLFSHGWPLDADMWEYQMEYLSSRGYRTIAFDRRGFGRSDQPWTGNDYDTFADDIAQLIEHLDLKEVTLVGFSMGGGDVARYIARHGSARVAGLVLLGAVTPLFGQKPDYPQGVPLDVFARFKTELLKDRAQFISDFNAPFYGINKGQVVSQGVQTQTLQIALLASLKATVDCVTAFAETDFRPDMAKIDVPTLVIHGDGDQIVPFETTGKVAAELIKGAELKVYKDAPHGFAVTHAQQLNEDLLAFLKRGPGSGGAGSPGSAGGPGSPSAQSQLPDKHSGLHERAPQRYGPEPEPEPEPIPEPPKEAPVVIEKPKPKPKPKPKPPAHDHKNQKETHQRHAAGSGGGGSPHHHH

- Peracetic acid (ppm) In Solution [4]: 3605 ppm
- Peracetic acid (ppm) On Hydroxyapatite [3]: 2476 ppm
B6: EZ-40: ArE-link1-DenP308-H6, SEQ ID NO: 464 (protein)
chain: MAKRILCFGDSLTWGWVPVEDGAPTERFAPDVRWTGVLAQQLGADFEVIEEGLVARTTNIDDPTDPRLNGASYLPSCLATHLPLDLVIIMLGTNDTKAYFRRTPLDIALGMSVLVTQVLTSAGGVGTTYPAPKVLVVSPPPLAPMPHPWFQLIFEGGEQKTTELARVYSALASFMKVPFFDAGSVISTDGVDGIHFTEANNRDLGVALAEQVRSLLGPGSGGAGSPGSAGGPGSDPTKPPRTPTANTSRPHHNFGSGGGGSPHHHHHH

- Peracetic acid (ppm) In Solution [1]: 64 ppm
- Peracetic acid (ppm) On Hydroxyapatite [2]: 63 ppm
B7: EZ-42: Pfl-link1-(GK)5-H6, SEQ ID NO: 466 (protein)
chain: MSTFVAKDGTQIYFKDWGSGKPVLFSHGWPLDADMWEYQMEYLSSRGYRTIAFDRRGFGRSDQPWTGNDYDTFADDIAQLIEHLDLKEVTLVGFSMGGGDVARYIARHGSARVAGLVLLGAVTPLFGQKPDYPQGVPLDVFARFKTELLKDRAQFISDFNAPFYGINKGQVVSQGVQTQTLQIALLASLKATVDCVTAFAETDFRPDMAKIDVPTLVIHGDGDQIVPFETTGKVAAELIKGAELKVYKDAPHGFAVTHAQQLNEDLLAFLKRGPGSGGAGSPGSAGGPGSGKGKGKGKGKHHHHHH

- Peracetic acid (ppm) On Hydroxyapatite [2]: 18 ppm
B8: EZ-41: Pfl-link1-H6, SEQ ID NO: 465 (protein)
chain: MSTFVAKDGTQIYFKDWGSGKPVLFSHGWPLDADMWEYQMEYLSSRGYRTIAFDRRGFGRSDQPWTGNDYDTFADDIAQLIEHLDLKEVTLVGFSMGGGDVARYIARHGSARVAGLVLLGAVTPLFGQKPDYPQGVPLDVFARFKTELLKDRAQFISDFNAPFYGINKGQVVSQGVQTQTLQIALLASLKATVDCVTAFAETDFRPDMAKIDVPTLVIHGDGDQIVPFETTGKVAAELIKGAELKVYKDAPHGFAVTHAQQLNEDLLAFLKRGPGSGGAGSPGSAGGPGSHHHHHH
